The values below come from article PMC3869376.

Assay [1] deals with 14-3-3β (UniProt P31946). Put plainly: DIG-GST-14-3-3β overlay on blotted immunoprecipitated PDE3B. As to conditions: reference: HA-PDE3B wild type; sites S318.
Assay [2] addresses 14-3-3β (UniProt P31946). Put plainly: GST-14-3-3β pull-down from cell lysate. As to conditions: reference: HA-PDE3B wild type; sites S318.

Sequence of 14-3-3β (P31946 whole entry, looked up): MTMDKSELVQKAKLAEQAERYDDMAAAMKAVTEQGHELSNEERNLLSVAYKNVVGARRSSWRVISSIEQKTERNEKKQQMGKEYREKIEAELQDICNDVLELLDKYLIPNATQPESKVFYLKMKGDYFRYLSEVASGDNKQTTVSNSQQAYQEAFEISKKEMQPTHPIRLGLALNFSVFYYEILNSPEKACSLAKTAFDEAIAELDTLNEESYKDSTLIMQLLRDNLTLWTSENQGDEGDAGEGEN

For the substance “PDE3B (phosphodiesterase 3B) (from UniProt Q13370-2) HA-PDE3B S318A”, the “binding against the reference” value in the assay with 14-3-3β [1] and with 14-3-3β [2] was “lost” in each case.
